B1: Fab of mAb 15-3 (Fab, V domains shown)
VH: QVQLQESGPGVVKPSETLSLSCGVSSASILGGYFFWSWIRQSPGKGLEWMGGVYTNSDTTNYNPSLKSRVAISKDTSVNQFSLRLTSVTAADTAVYYCTARATVHSSASYYYGGRIDVWGPGLLVTVSS
VL: DIQMTQSPSSLSASLGDRVTVTCRASQGINRDLSWFQQKPGKAPTLLIYEVSNLQTGVSSRFSGSGSGTDFTLTISSLQPEDVATYYCQQDYDFPLTFGGGTKVDLK
B2: Fab of mAb 7-2 (Fab, V domains shown)
VH: QVQLQASGPGVVKPSETLSLTCAVSGDYVRRGYFYWSWVRQSPGKGLEWIGGIYSNSDTTNYNPSLKSRLTISKDTSNNQFFLTLSSVTAADTAVYYCTSRAKIYSSGSYYAGGRIDVWGPGVQVIVSS
VL: B1 VL with I2V, Q3H, R18S, R31K, K42E, E50D, V51A, N53T, S77N
B3: Fab of mAb 6-6 (Fab, V domains shown)
VH: QVQLQVSGPGVVKPSETLSLTCSVSGDSFRRAYFFWSWVRQPPGKGLEWMGGIYTNSESTTYNPSLESRISVSKDASKNQFSLRLTSVTAADTAVYYCTSRAEVYFSGGYYSGGRIDVWGPGVLVTVSS
VL: DIQMTQSPSSLSASVGDRVTVTCRASQDINKDLSWFQQKPGEAPTLLIFTASTLQTGVSSRFSGSGSGTSFSLTISSLQPEDVATYFCQQDHSFPLTFGGGTRVDLQ

Changes are numbered by the printed parent chain.

The target of the assay is HIV-1 BG505.DS.SOSIP.S613A Env trimer (HIV-1 (strain BG505)). Nature of the assay: BLI; Trimer-Fab method, Octet RED384, 25 °C, 1% BSA in PBS: trimer (100 nM) held by RM19R-human Fc IgG on anti-human Fc capture tips; Fab as analyte in serial dilutions; global fit to a 1:1 Langmuir model. Background: BLI is a label-free optical method that tracks binding on a fibre tip over time.
Turning to B1, the equilibrium dissociation constant (Kd) (in general, the concentration at which binding is half-saturated) turned out to be 0.104 nM; the koff (in general, the rate constant with which the complex falls apart) came to 7.98e-06 s⁻¹; the kon (usually a measure of how fast the partners come together) was 76500 M⁻¹ s⁻¹.
Taken in the same sequence, the figures for B2 were 0.774 nM, 0.000109 s⁻¹ and 141000 M⁻¹ s⁻¹.
Molecule B3 gave a Kd of 17 nM, an off-rate (koff) of 0.00304 s⁻¹ and an on-rate (kon) of 179000 M⁻¹ s⁻¹.

(Values after publication PMC11003769.)
